The text below walks through data of the supplement of paper PMC10567573.

Sequences and labels used below:
B1: FBXO3 (parent)
chain: DEEERRRRVFDVPIRRRRCSRLF
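Also: lentivirally expressed fusions sorted by FACS into six bins by GFP to DsRed ratio, PSI derived from sequencing read proportions per bin multiplied by bin number.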

Variants of B1 are the subject of this data set. The data set can be described thus: protein stability index of a GFP-peptide fusion (GPS, HEK-293T) (PSI 1-6); higher = more stable. The note with it: c terminus: native.
As for DEEETRRRVFDVPIRRRRCSRLF [R5T], the protein stability index came to 3.51.
The same measure for DEEEIRRRVFDVPIRRRRCSRLF [R5I]: 3.44.
Regarding DEEEFRRRVFDVPIRRRRCSRLF [R5F], the protein stability index was 3.24.
The same measure for DEEEKRRRVFDVPIRRRRCSRLF [R5K]: 3.32; for DEEEDRRRVFDVPIRRRRCSRLF [R5D]: 3.64; for DEEEPRRRVFDVPIRRRRCSRLF [R5P]: 3.3.
As for DEEELRRRVFDVPIRRRRCSRLF [R5L], the protein stability index is 3.12.
For DEEEHRRRVFDVPIRRRRCSRLF [R5H], the protein stability index worked out at 3.41.
The same measure for DEEEGRRRVFDVPIRRRRCSRLF [R5G]: 3.54; for DEEEARRRVFDVPIRRRRCSRLF [R5A]: 3.9.
The same measure for DEEEVRRRVFDVPIRRRRCSRLF [R5V]: 3.25; for DEEEQRRRVFDVPIRRRRCSRLF [R5Q]: 4.1; for DEEEYRRRVFDVPIRRRRCSRLF [R5Y]: 2.85.
Regarding DEEENRRRVFDVPIRRRRCSRLF [R5N], the protein stability index amounted to 3.77.
The same measure for DEEESRRRVFDVPIRRRRCSRLF [R5S]: 3.55; for DEEEMRRRVFDVPIRRRRCSRLF [R5M]: 3.59; for DEEECRRRVFDVPIRRRRCSRLF [R5C]: 2.57.
For DEEEWRRRVFDVPIRRRRCSRLF [R5W] the value was 2.23; for DEEEERRRVFDVPIRRRRCSRLF [R5E], 4.12.
In the case of DEEERRRRVFDCPIRRRRCSRLF [V12C], the protein stability index was determined as 1.73.
The same measure for DEEERRRRVFDEPIRRRRCSRLF [V12E]: 2.81; for DEEERRRRVFDDPIRRRRCSRLF [V12D]: 2.71; for DEEERRRRVFDAPIRRRRCSRLF [V12A]: 3.05.
For DEEERRHRVFDVPIRRRRCSRLF [R7H] the value was 3.06; for DEEERRERVFDVPIRRRRCSRLF [R7E], 3.88.
The same measure for DEEERRARVFDVPIRRRRCSRLF [R7A]: 3.6; for DEEERRFRVFDVPIRRRRCSRLF [R7F]: 2.61.
For the variant DEEERRSRVFDVPIRRRRCSRLF [R7S], the protein stability index was 4.28.
Take DEEERRMRVFDVPIRRRRCSRLF [R7M]: the protein stability index was 2.3.
The same measure for DEEERRVRVFDVPIRRRRCSRLF [R7V]: 3.01.
For DEEERRQRVFDVPIRRRRCSRLF [R7Q] the value was 3.69; for DEEERRNRVFDVPIRRRRCSRLF [R7N], 3.8.
For DEEERRPRVFDVPIRRRRCSRLF [R7P] the value was 3.71.
Regarding DEEERRTRVFDVPIRRRRCSRLF [R7T], the protein stability index is 3.67.
For DEEERRGRVFDVPIRRRRCSRLF [R7G] the value was 3.64; for DEEERRWRVFDVPIRRRRCSRLF [R7W], 1.97; for DEEERRYRVFDVPIRRRRCSRLF [R7Y], 2.51.
Turning to DEEERRKRVFDVPIRRRRCSRLF [R7K], the protein stability index came out at 2.79.
DEEERRCRVFDVPIRRRRCSRLF [R7C]: the protein stability index was 2.89.
Regarding DEEERRIRVFDVPIRRRRCSRLF [R7I], the protein stability index stood at 2.8.
For DEEERRDRVFDVPIRRRRCSRLF [R7D] the value was 4; for DEEERRLRVFDVPIRRRRCSRLF [R7L], 3.19.
For YEEERRRRVFDVPIRRRRCSRLF [D1Y] the value was 2.57; for VEEERRRRVFDVPIRRRRCSRLF [D1V], 2.34.
The same measure for WEEERRRRVFDVPIRRRRCSRLF [D1W]: 1.8; for DEEERRRRVTDVPIRRRRCSRLF [F10T]: 4.33.
With DEEERRRRVSDVPIRRRRCSRLF [F10S], the protein stability index amounted to 4.54.
For DEEERRRRVMDVPIRRRRCSRLF [F10M] the value was 3.87.
The same measure for DEEERRRRVADVPIRRRRCSRLF [F10A]: 4.88.
The same measure for DEEERRRRVCDVPIRRRRCSRLF [F10C]: 3.43; for DEEERRRRVLDVPIRRRRCSRLF [F10L]: 3.06.
DEEERRRRVEDVPIRRRRCSRLF [F10E]: the protein stability index came to 4.16.
For DEEERRRRVYDVPIRRRRCSRLF [F10Y] the value was 3.22; for DEEERRRRVWDVPIRRRRCSRLF [F10W], 2.09.
For the variant DEEERRRRVHDVPIRRRRCSRLF [F10H], the protein stability index turned out to be 4.08.
The same measure for DEEERRRRVIDVPIRRRRCSRLF [F10I]: 3.84.
For DEEERRRRVPDVPIRRRRCSRLF [F10P] the value was 4.32; for DEEERRRRVDDVPIRRRRCSRLF [F10D], 4.51; for DEEERRRRVNDVPIRRRRCSRLF [F10N], 4.45.
For the variant DEEERRRRVGDVPIRRRRCSRLF [F10G], the protein stability index came out at 4.62.
For DEEERRRRVVDVPIRRRRCSRLF [F10V] the value was 3.94; for DEEERRRRVRDVPIRRRRCSRLF [F10R], 3.85; for DEEERRRRVKDVPIRRRRCSRLF [F10K], 4.19.
In the case of DEEERRRRVQDVPIRRRRCSRLF [F10Q], the protein stability index worked out at 4.56.
For DEENRRRRVFDVPIRRRRCSRLF [E4N] the value was 1.92; for DEECRRRRVFDVPIRRRRCSRLF [E4C], 2.58.
In the case of DEEIRRRRVFDVPIRRRRCSRLF [E4I], the protein stability index was found to be 2.16.
The same measure for DEEDRRRRVFDVPIRRRRCSRLF [E4D]: 3.66.
For DEEARRRRVFDVPIRRRRCSRLF [E4A] the value was 1.98.
For DEEKRRRRVFDVPIRRRRCSRLF [E4K] the value was 1.98; for DEEYRRRRVFDVPIRRRRCSRLF [E4Y], 2.14; for DEEWRRRRVFDVPIRRRRCSRLF [E4W], 1.73.
For DEELRRRRVFDVPIRRRRCSRLF [E4L], the protein stability index is 1.59.
For DEERRRRRVFDVPIRRRRCSRLF [E4R] the value was 2.9; for DEEMRRRRVFDVPIRRRRCSRLF [E4M], 3.23.
The same measure for DEETRRRRVFDVPIRRRRCSRLF [E4T]: 2.14; for DEEPRRRRVFDVPIRRRRCSRLF [E4P]: 2.29.
For DEEVRRRRVFDVPIRRRRCSRLF [E4V] the value was 1.86; for DEEGRRRRVFDVPIRRRRCSRLF [E4G], 2.48; for DEEHRRRRVFDVPIRRRRCSRLF [E4H], 1.99.
Consider DEEFRRRRVFDVPIRRRRCSRLF [E4F], for which the protein stability index turned out to be 2.13.
For DEESRRRRVFDVPIRRRRCSRLF [E4S] the value was 2.08; for DEEQRRRRVFDVPIRRRRCSRLF [E4Q], 2.72.
The same measure for DESERRRRVFDVPIRRRRCSRLF [E3S]: 1.91; for DEGERRRRVFDVPIRRRRCSRLF [E3G]: 2.19.
For DEPERRRRVFDVPIRRRRCSRLF [E3P] the value was 2.32; for DEYERRRRVFDVPIRRRRCSRLF [E3Y], 1.84.
As to DEKERRRRVFDVPIRRRRCSRLF [E3K], the protein stability index was 2.68.
The same measure for DEVERRRRVFDVPIRRRRCSRLF [E3V]: 2.54; for DERERRRRVFDVPIRRRRCSRLF [E3R]: 2.34.
The same measure for DETERRRRVFDVPIRRRRCSRLF [E3T]: 1.81; for DEHERRRRVFDVPIRRRRCSRLF [E3H]: 2.18; for DEAERRRRVFDVPIRRRRCSRLF [E3A]: 1.88.
With DENERRRRVFDVPIRRRRCSRLF [E3N], the protein stability index was 2.79.
Regarding DEIERRRRVFDVPIRRRRCSRLF [E3I], the protein stability index amounted to 1.99.
For DEDERRRRVFDVPIRRRRCSRLF [E3D] the value was 2.63; for DEMERRRRVFDVPIRRRRCSRLF [E3M], 2.53.
